The record followed here is US7250290B1, “Arsenic methyltransferase sequence variants” (priority 2003, dated 2007).

Read-outs that look alike come from different tables or passages of the source.

Data set [1] deals with recombinant ASMT allozymes. Kind of data set: ASMT enzyme activity of recombinant allozymes (methylation of sodium arsenite with 14C-SAM). It counts as biochemical, human. The settings on record: COS-1 cell homogenate, 2.5 mM sodium arsenite, 10 μM 14C-SAM, corrected for transfection efficiency, mean ± SEM. An excerpt:
Recombinant ASMT Expression Constructs and Allozyme Expression: ASMT cDNA sequences for the three non-synonymous cSNPs observed during the resequencing experiments were created using the QuickChange Site-Directed Mutagenesis kit (Stratagene, La Jolla, Calif.), with the wild type ASMT cDNA open reading frame (ORF) in the pUni/V5-His-TOPO (pUni) vector (Invitrogen) as template. Specifically, the full-length wild type ORF was amplified using human brain Marathon-Ready cDNA (Clontech) as template. The resultant ASMT cDNA was subcloned into pUni, a vector that is only 2.3 kilobases in length and thus is well suited for performing “circular PCR” during site-directed mutagenesis. Site-directed mutagenesis was performed using internal primers that contained the variant nucleotide sequences. […]
ASMT Enzyme Activity: ASMT activity was measured using the methods of Zakharayan et al. (Chem. Res. Toxicol. 8(8):1029-1038 (1995)). […] The protein concentration of each recombinant protein preparation was determined by the dye-binding method of Bradford (Anal. Biochem. 72:248-254 (1976)) with bovine serum albumin as a standard. “Blank” samples included the same quantity of COS-1 15,000 x g supernatant from cells that were transfected with “empty” p91023(b) expression vector to correct for endogenous activity. […]

Data set [2] relates to recombinant ASMT allozymes. In words: Substrate kinetic studies, apparent Km of recombinant ASMT allozymes. It is filed as biochemical, human. The procedure:
Estimating Apparent Km Values: To estimate apparent Km values of ASMT for the sodium arsenite and SAM, a series of sodium arsenite and SAM concentrations were tested with the recombinant allozymes. Blanks for each substrate concentration were included by assaying COS-1 cell cytosol after transfection with empty p91023(b) vector. […] Apparent Km values were calculated using the method of Wilkinson with a computer program written by Cleland. Wilkinson supra; and Cleland supra.
Alterations in amino acid sequence can alter enzyme substrate affinity and/or catalytic efficiency. […] A series of sodium arsenite and SAM concentrations were used to estimate apparent Km values for recombinant wild type ASMT and for the three variant allozymes.

B1: WT: recombinant wild type (reference) human ASMT polypeptide, SEQ ID NO:5, expressed in COS-1 cells (protein, listed as Homo Sapiens)
chain: MAALRDAEIQKDVQTYYGQVLKRSADLQTNGCVTTARPVPKHIREALQNVHEEVALRYYGCGLVIPEHLENCWILDLGSGSGRDCYVLSQLVGEKGHVTGIDMTKGQVEVAEKYLDYHMEKYGFQASNVTFIHGYIEKLGEAGIKNESHDIVVSNCVINLVPDKQQVLQEAYRVLKHGGELYFSDVYTSLELPEEIRTHKVLWGECLGGALYWKELAVLAQKIGFCPPRLVTANLITIQNKELERVIGDCRFVSATFRLFKHSKTGPTKRCQVIYNGGITGHEKELMFDANFTFKEGEIVEVDEETAAILKNSRFAQDFLIRPIGEKLPTSGGCSALELKDIITDPFKLAEESDSMKSRCVPDAAGGCCGTKKSC
For the molecule B1, the “Enzyme Activity (% WT)” value in data set [1] is reported as 100 % WT. Further, the Km in data set [2] (substrate SAM, read-out: SAM Km) stood at 12 ± 6.9 µM; in data set [2] (substrate sodium arsenite, read-out: Sodium Arsenite Km) it was 4.6 µM.

The term Km denotes the concentration of substrate that gives half-maximal velocity.
